Conditions in all cases: chain copies: 2; label: 5'-biotin on the ERE strand; blunt
The target of data set [1] is T1, estrogen receptor alpha (ERα), purified (UniProt P03372 1-595). In words: SPR; SPR: 40 mM HEPES-KOH pH 7.4, 10 mM MgCl2, 200 mM KCl, 0.2% Triton X-100, 2 mM DTT, room temperature; ERα 58-708 nM (relative binding averaged over concentrations). (In general: SPR reads the build-up and loss of mass on a sensor chip optically.)
Data set [2] has as its target T1, estrogen receptor alpha (ERα), purified. In words: SPR; binding disrupted by about 40%; SPR: 40 mM HEPES-KOH pH 7.4, 10 mM MgCl2, 200 mM KCl, 0.2% Triton X-100, 2 mM DTT, room temperature; ERα 58-708 nM (relative binding averaged over concentrations).
The target is the same in data set [3]. As to the kind of experiment: SPR; not significantly perturbed; SPR: 40 mM HEPES-KOH pH 7.4, 10 mM MgCl2, 200 mM KCl, 0.2% Triton X-100, 2 mM DTT, room temperature; ERα 58-708 nM (relative binding averaged over concentrations).

T1 sequence (P03372 whole entry): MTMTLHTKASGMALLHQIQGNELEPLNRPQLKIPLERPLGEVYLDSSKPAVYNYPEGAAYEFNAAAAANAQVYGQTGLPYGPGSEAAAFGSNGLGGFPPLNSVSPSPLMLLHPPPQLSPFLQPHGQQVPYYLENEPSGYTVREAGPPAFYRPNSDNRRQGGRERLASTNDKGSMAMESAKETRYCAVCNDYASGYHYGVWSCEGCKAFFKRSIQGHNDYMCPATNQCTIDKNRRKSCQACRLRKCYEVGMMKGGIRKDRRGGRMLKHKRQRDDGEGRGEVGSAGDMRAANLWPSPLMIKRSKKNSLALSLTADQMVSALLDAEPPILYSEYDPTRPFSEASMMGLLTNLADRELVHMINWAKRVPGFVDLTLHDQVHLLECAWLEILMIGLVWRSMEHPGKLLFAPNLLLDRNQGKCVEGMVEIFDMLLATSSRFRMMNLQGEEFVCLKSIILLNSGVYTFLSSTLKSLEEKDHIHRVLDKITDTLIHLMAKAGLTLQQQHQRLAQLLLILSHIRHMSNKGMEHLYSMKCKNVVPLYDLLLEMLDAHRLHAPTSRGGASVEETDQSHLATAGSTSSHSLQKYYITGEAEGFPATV

B1: GREB1 ERE wildtype (dsDNA)
DNA 1: TGTGGCAACTGGGTCATTCTGACCTAGAAGCAAC
DNA 2: GTTGCTTCTAGGTCAGAATGACCCAGTTGCCACA
For B1, in data set [1], the binding signal was 100 % of wild type.

B2: mutant 1 (conserved 3' G to A) (dsDNA)
DNA 1: TGTGGCAACTGGGTCATTCTGACCTAAAAGCAAC
DNA 2: GTTGCTTTTAGGTCAGAATGACCCAGTTGCCACA
As for B2, in data set [2], the binding signal was ~60 % of wild type.

B3: mutant 4 (outside the 3-bp flank, C to G) (dsDNA)
DNA 1: TGTGGGAACTGGGTCATTCTGACCTAGAAGCAAC
DNA 2: GTTGCTTCTAGGTCAGAATGACCCAGTTCCCACA
For B3, the binding result in data set [3] is listed as “binds”.
